From article PMC6248175

Target: C3b (UniProt P01024)
Test: microplate/western blot assay; protocol 1, formation step: C3b-coated wells; FB 1,000 ng/ml, FD 10 ng/ml, 10 mM MgCl2, 100 ug/ml control or patients' IgGs, 12 min at 25 C, without or with FH 2,640 ng/ml during formation; density of the Bb band with FH over that without FH

ratio Bb band + FH / Bb band without FH (with FH-CSA+ C3NeF IgGs of patients): 0.58 | ratio Bb band + FH / Bb band without FH (with FH-CSA- C3NeF IgGs of patients): 0.32 | ratio Bb band + FH / Bb band without FH (with control IgGs): 0.32
Substance: factor H (from UniProt P08603 19-1231) (natural protein)
